According to the supplement of paper PMC11908140:

B1: library; numbered along this chain (parent)
chain: MRKPRAAVGSGHRKQAASQEGRQKHAKNNSQAKPSACDGLARQPEEVVLQASVSSYHLFRDVAEVTAFRGSLLSWYDQEKRDLPWRRRAEDEMDLDRRAYAVWVSEVMLQQTQVATVINYYTGWMQKWPTLQDLASASLEEVNQLWAGLGYYSRGRRLQEGARKVVEELGGHMPRTAETLQQLLPGVGRYTAGAIASIAFGQATGVVDGNVARVLCRVRAIGADPSSTLVSQQLWGLAQQLVDPARPGDFNQAAMELGATVCTPQRPLCSQCPVESLCRARQRVEQEQLLASGSLSGSPDVEECAPNTGQCHLCLPPSEPWDQTLGVVNFPRKASRKPPREESSATCVLEQPGALGAQILLVQRPNSGLLAGLWEFPSVTWEPSEQLQRKALLQELQRWAGPLPATHLRHLGEVVHTFSHIKLTYQVYGLALEGQTPVTTVPPGARWLTQEEFHTAAVSTAMKKVFRVYQGQQPGTCMGSKRSQVSSPCSRKKPRMGQQVLDNFFRSHISTDAHSLNSAAQ

Variants of: B1
Assay: 8OG:A repair function score (normalized; synonymous = 0, nonsense = -1) (normalized log-likelihood score); higher = more repair activity (WT-like)
Details: with 8OG:A DNA repair reporter (GFP) in HEK-293 MUTYH KO cells
Method: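 Saturation mutagenesis (NNN codon scan) of the MUTYH cDNA (521-aa nuclear isoform NM_001048174.1 / NP_001041639), stably expressed under doxycycline induction in HEK-293 MUTYH knockout cells. Cells were co-transfected with an 8OG:A-bearing GFP repair reporter plus mCherry and sorted 72 h later into GFP+ and GFP− bins, three replicates per tile. The Rosace log2 enrichment (GFP+ vs GFP−) was converted per tile to a normalized function score with synonymous variants centered at 0 and nonsense variants (codons 1-471) at -1; low-abundance variants were removed.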

8OG:A repair function score, by site and new letter:
T116: N -0.15, Q -0.21, H 0.0217, I -0.262, L 0.023, S -0.0572, R 0.0298, K 0.113, F -0.000589, M -0.441, W -0.0903, P -0.326, D -1.03, E -0.305, Y -0.0318, C -0.0685, V -0.0225, A -0.122, G -0.179
W124: I -0.714, F 0.00143, P -0.593, D -0.574, V -0.516, T -0.869, Q -0.557, L -0.378, E -1.01, H -0.678, M -1.62, Y -0.973, K -0.931, C -0.794, G -0.892, R -1.05, S -0.825, A -0.577, N -1.01
Q110: S -1.26, H -0.0864, P -0.29, G 0.0252, F -1.24, L -0.353, A -2.51, V 0.0461, C -0.75, R -0.82
M108: W -1.11, N -1.18, R -1.2, F -0.641, I -0.761, D -0.793, L -0.662, G -1.18, A -1.06, V -1.11, T -0.981, C -0.99, K -1.01, Q -0.453, H -1.36, P -1.2, S -1.28, E -0.887, Y -0.819
M125: A -0.557, D -0.755, E -0.577, C -0.306
N119: G 0.0963, Q -0.00304, T -0.0798, M -0.216, E -0.069, P -0.0904, Y -0.361, W -0.704, S -0.294, L -0.112, V 0.0134, C -0.0452, H 0.126, I -0.263, D -0.419, A 0.121, R 0.0743, F -0.259, K -0.0285
Q113: L -0.239, D -0.327, N -0.167, S -0.0696, V -0.43, M -0.593, H -0.405, Y 0.0661, R 0.032, W -0.172, A -0.108, K -0.158, C -0.133, P -0.116, F -0.237, I -0.279, T 0.157, E -0.529, G -0.109
Y120: K 0.0493, F -0.0973, H -0.238, I -0.425, Q -0.154, R -0.0662, S -0.126, M -0.0214, L -0.231, G -0.347, V -0.224, P -0.134, N -0.333, C -0.227, W -0.465, E -0.482, D -0.428, T 0.0371, A -0.24
T122: V -0.0114, P 0.0277, H 0.0576, W -0.16, I 0.0511, K -0.158, G -0.143, A -0.000881, F -0.0723, S -0.0596, Q 0.0683, C -0.0157, N 0.119, E -0.0848, M -0.388, Y -0.13, D 0.0468, R -0.0157, L -0.0652
Q111: R -0.248, H -0.591, K -0.553, Y -1.17, N -0.242, P -1.13, V -0.38, S -0.201, A -0.258, T -0.764, F -1.08, D -0.941, C -0.764, W -0.869, I -1.18, E -1.24, M -1.12, G -0.557, L -0.931
I118: L -0.0284, R 0.0138, H 0.000662, F -0.3, S -0.0993, C 0.0146, T -0.0724, G -0.107, N -0.0549, K -0.483, P -0.112, Y -0.223, M -0.277, A -0.0372, V 0.00363, Q -0.0947, W -0.13, E -0.0341, D -0.182
A115: R 0.092, C -0.0964, I -0.0495, V 0.00984, M -0.164, G -0.0228, P -0.0424, L -0.0647, N 0.178, T -0.106, D -0.0868, E 0.0471, Y -0.206, F -0.146, Q -0.0206, W -0.182, K -0.0104, H 0.0405, S -0.0518
L109: Q -0.022, V -0.838, Y -1.24, K -0.951, E -1.07, P -1, R -1.05, N -0.45, T -0.266, H -0.619, M -0.105, S -0.213, W -0.957, G -0.659, A 0.00548, D -1.16, F -0.916, I -1.04, C -0.0119
Y121: E -1.92, K -1.13, N -3.31, H -0.853, I -0.562, F -0.109, M -0.933, G -1.09, P -1.26, L -0.993, C -1.17, W -0.427, T -1.25, V -0.91, A -0.942, Q -0.765, S -0.866, R -0.993, D -0.798
G123: N -0.0109, K 0.00116, R 0.0952, T 0.0116, W -0.322, A 0.0469, P 0.0736, H -0.0466, V 0.0959, S 0.0793, L 0.0662, Q 0.213, F -0.0297, M -0.101, D -0.257, E -0.000943, C 0.124, I 0.0985, Y -0.191
V117: D -1, H -1.24, I -0.166, C 0.0468, N -1.21, G -0.408, A 0.0474, M -0.226, W -0.737, K -1.84, E -0.683, S -0.427, L -0.727, P -1.02, T 0.0387, Q -1.26, R -1.16, Y -1.28, F -1.21
V107: R -0.87, I 0.0887, H -0.608, Y -0.533, E -0.669, F -0.314, M 0.0622, G -0.0408, L -0.266, S -0.135, P -1.01, N -0.735, T -0.0133, Q -0.746, K -0.731, W -0.894
T112: K -1.01, Y -1.19, V -0.914, F -1.17, S -0.314, C -0.907, N -0.879, E -0.925, L -1.42, R -0.922, W -1.35, A -1.03, G -0.908, P -1.38, H -0.634, Q -0.591, D -1.3, I -1.18, M -1.06
V114: M -1.07, D -0.453, K -0.435, A 0.0344, R -0.297, I -0.181, Q -0.313, E -0.932, C -0.178, W -0.527, P -1.09, T -0.141, F -0.42, Y -0.241, G -0.449, H -0.935, N -0.367, L -0.441, S -0.184
